Target: T1, CREB B-ZIP DNA binding domain (UniProt P16220 269-327)
T1 sequence: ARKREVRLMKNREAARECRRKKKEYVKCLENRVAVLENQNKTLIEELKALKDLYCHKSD
Experiment: EMSA

B1: CRE 28-mer unmethylated (U) (dsDNA)
DNA 1: GTCAGTCAGATGACGTCATATCGGTCAG
DNA 2: CTGACCGATATGACGTCATCTGACTGAC
B1: binds.

From paper PMC4205155
